The supplement of paper PMC9170038

Columns and labels:
MS2 coat protein [1] = assay: apparent KD of MS2 coat protein, switch OFF state (with FMN for OFF switches, without FMN for ON switches); designed switch direction (-1 OFF switch, 1 ON switch): -1; higher = weaker reporter binding; details: FMN input: 0 or 200 uM; Eterna round: R93 (includes R88 designs)
In short: (§1)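 Titrations with SNAP-549-labelled MS2 coat protein ran in twofold steps from 0.7 or 1.5 nM to 3 µM, each step taking 0.8–1.5 h at the start and 10–20 min toward the end. The targets were designed RNA switches transcribed on-chip from Illumina sequencing clusters, held in 100 mM Tris-HCl pH 7.5, 80 mM KCl, 4 mM MgCl2, without or with constant ligand. Apparent KD was taken per design as the median of normalised cluster binding-curve fits.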

MS2 coat protein [2] = assay: apparent KD of MS2 coat protein, switch ON state; designed switch direction (-1 OFF switch, 1 ON switch): -1; higher = weaker reporter binding; details: FMN input: 0 or 200 uM; Eterna round: R93 (includes R88 designs)
In short: as §1

CUCUUGUCAGGAUAUCAAAGAAAAGAAGAGAAAGAAAAGAAUGAGAAGGGACAUGAGGAUCACCCAUGUAAGAA [EteRNA is fun!]
apparent KD of MS2 coat protein (MS2 coat protein [1]): 51.7 nM | apparent KD of MS2 coat protein (MS2 coat protein [2]): 48.1 nM

AAAAAGGUAGGAUAUGCUAAAUAACAUGAAGAAUAAAUAAAACAUGAGGAUCACCCAUGUAGAAGGACCAAAAA [Ex 2 Tesla 1]
apparent KD of MS2 coat protein (MS2 coat protein [1]): 20 nM | apparent KD of MS2 coat protein (MS2 coat protein [2]): 25 nM

AAGAAGUGAGGAUAUCGAAGACUGUCGAAAAGACAGUCGAACGAGAAGGCACAUGAGGAUCACCCAUGUGAGGG [Marsurpial 65% 3]
apparent KD of MS2 coat protein (MS2 coat protein [1]): 69.9 nM | apparent KD of MS2 coat protein (MS2 coat protein [2]): 130 nM

GGGCCACAUGAGGAUCACCCAUGUAAGGAUAUGCUAGGGAUGGAAACCAUUACGCAAAGCAGAAGGUACUAAAG [Janelle Amethyst 18 Mod 10 - Jieux - Exclusion 1]
apparent KD of MS2 coat protein (MS2 coat protein [1]): 28.2 nM | apparent KD of MS2 coat protein (MS2 coat protein [2]): 26.6 nM

AAAGGGCGAGGAUAUACAUGAGGAUCACCCAUGUAAAAAACAUAAUAAAAGAACUUAUGUAGAAGGCGUCCAAA [Meechl Ex3 2 R2 v2]
apparent KD of MS2 coat protein (MS2 coat protein [1]): 321 nM | apparent KD of MS2 coat protein (MS2 coat protein [2]): 52.8 nM

AAAAAUCGAGGAUAUACAUGAGGAUCACCCAUGUUGGAAAACGAUUACACAAAAGAAAGUAGAAGGCGAUAAAA [Ex 3 May 21]
apparent KD of MS2 coat protein (MS2 coat protein [1]): 24.7 nM | apparent KD of MS2 coat protein (MS2 coat protein [2]): 16.5 nM

AAAAAGUCAGGAUAUGCAGACAAAGCAAAAAAGCAAUGUCUGCAGAAGGGACAUGAGGAUCACCCAUGUAAAAA [Ex 4 May 9]
apparent KD of MS2 coat protein (MS2 coat protein [1]): 44.6 nM | apparent KD of MS2 coat protein (MS2 coat protein [2]): 57.7 nM

GAAAAGUCAGGAUAUAUAGGAAAAAUAAAAAAAAUAAAACUAUAGAAGGGACAUGAGGAUCACCCAUGUUAAAA [Mat - Exclusion 4 - Mayanna - D131]
apparent KD of MS2 coat protein (MS2 coat protein [1]): 24.7 nM | apparent KD of MS2 coat protein (MS2 coat protein [2]): 43.9 nM

GAAAAGUGAGGAUAUACAUGAGGAUCACCCAUGUGUAUAAAAAAUUACACAAAAGAAAGUAGAAGGCACUAAAA [Mat - Exclusion 3 - Mayanna mod - D114]
apparent KD of MS2 coat protein (MS2 coat protein [1]): 28.1 nM | apparent KD of MS2 coat protein (MS2 coat protein [2]): 17.8 nM

AAAAAACAUGAGGAUCACCCAUGUGAGGAUAUGCAAAAGAAAAGAAAAGAAAGAAGAAGCAGAAGGUACAAGAA [Shepseskare Isi]
apparent KD of MS2 coat protein (MS2 coat protein [1]): 27.7 nM | apparent KD of MS2 coat protein (MS2 coat protein [2]): 22.6 nM

AAGAACACAGGAUAUACAUGAGGAUCACCCAUGUAAAAGAAAGAAGGGAAAGAGAAAAGUAGAAGGGUGAAGAA [Ker]
apparent KD of MS2 coat protein (MS2 coat protein [1]): 36.6 nM | apparent KD of MS2 coat protein (MS2 coat protein [2]): 33.1 nM

AAAAAACAUGAGGAUCACCCAUGUGAGGAUAUGAACGAAAUAAAAUAAAAAUAAAAGUUCAGAAGGCACAAAAA [Mat - Exclusion 1 - Eli mod - D11]
apparent KD of MS2 coat protein (MS2 coat protein [1]): 44.7 nM | apparent KD of MS2 coat protein (MS2 coat protein [2]): 33.2 nM

AGUGAGUGAGGAUAUUACUGAAGAAUAAAAGAAAUAACAAGUAAGAAGGCACAUGAGGAUCACCCAUGUACACA [May 61]
apparent KD of MS2 coat protein (MS2 coat protein [1]): 22 nM | apparent KD of MS2 coat protein (MS2 coat protein [2]): 22.4 nM

ACAAAACAUGAGGAUCACCCAUGUGAGGAUAUGCGAAACAAACAAACAAACAAACAAAGCAGAAGGCACAACAA [Ex 1 Tesla 3]
apparent KD of MS2 coat protein (MS2 coat protein [1]): 31 nM | apparent KD of MS2 coat protein (MS2 coat protein [2]): 19.5 nM

AAGAACCGAGGAUAUACAUGAGGAUCACCCAUGUAAAAGAAAGAGGGAAAAGAGAAAAGUAGAAGGCGGAAGAA [Berenice I]
apparent KD of MS2 coat protein (MS2 coat protein [1]): 57.4 nM | apparent KD of MS2 coat protein (MS2 coat protein [2]): 26.2 nM

AAGAAUGGAGGAUAUACAAAAUAAAAGAAAAGAAAGAAAGAACAUGAGGAUCACCCAUGUAGAAGGCCAAAGAA [Khasekhemre Neferhotep I]
apparent KD of MS2 coat protein (MS2 coat protein [1]): 24.7 nM | apparent KD of MS2 coat protein (MS2 coat protein [2]): 33.6 nM

AAAAAACAUGAGGAUCACCCAUGUGAGGAUAUGCUAUGGAAAAUAAAAAUAAAACAUAGCAGAAGGCACAAUGU [Denovo 5]
apparent KD of MS2 coat protein (MS2 coat protein [1]): 85.2 nM | apparent KD of MS2 coat protein (MS2 coat protein [2]): 50.9 nM

UAUAGACAUGAGGAUCACCCAUGUGAGGAUAUCGGUAACUACAAAACAUCACAUACAACGAGAAGGCACAGAAA [JR_Exc001_Sub013]
apparent KD of MS2 coat protein (MS2 coat protein [1]): 35.1 nM | apparent KD of MS2 coat protein (MS2 coat protein [2]): 41.5 nM

AAAAAACAUGAGGAUCACCCAUGUGAGGAUAUACUAAACAAAAAAAACAAAAACAAAUGUAGAAGGCACAAAAA [Amethyst 36]
apparent KD of MS2 coat protein (MS2 coat protein [1]): 23 nM | apparent KD of MS2 coat protein (MS2 coat protein [2]): 19 nM

AGGGAGUCAGGAUAUCGGAAAACAAAACAACGAAAAAAAGACGAGAAGGGACAUGAGGAUCACCCAUGUAAGAA [milkweed 17]
apparent KD of MS2 coat protein (MS2 coat protein [1]): 21.6 nM | apparent KD of MS2 coat protein (MS2 coat protein [2]): 41.4 nM

AAGAACGGAGGAUAUACAUGAGGAUCACCCAUGUAAAAGAAAGAAAAGGGAAAGAAAAGUAGAAGGCCGAAGAA [Djeserkare Amenhotep I]
apparent KD of MS2 coat protein (MS2 coat protein [1]): 51.3 nM | apparent KD of MS2 coat protein (MS2 coat protein [2]): 39.8 nM

AAAAAGUCAGGAUAUCGUAGAAAAAUAUAAAUAAGAAAGUACGAGAAGGGACAUGAGGAUCACCCAUGUAAAAA [Ex 4 #1]
apparent KD of MS2 coat protein (MS2 coat protein [1]): 36.8 nM | apparent KD of MS2 coat protein (MS2 coat protein [2]): 50 nM

AAGAAACAUGAGGAUCACCCAUGUCAGGAUAUCGAAGAAAGAAAGAAAGAAAGAAGAACGAGAAGGGACAAAGG [Gaius Iulius Aquila]
apparent KD of MS2 coat protein (MS2 coat protein [1]): 60.4 nM | apparent KD of MS2 coat protein (MS2 coat protein [2]): 44.4 nM

AGGAAACAUGAGGAUCACCCAUGUGAGGAUAUAGAAAAGAAAAGAAAAGAAAGAAGAACUAGAAGGUACAAGAA [Menkauhor Kaiu]
apparent KD of MS2 coat protein (MS2 coat protein [1]): 26.8 nM | apparent KD of MS2 coat protein (MS2 coat protein [2]): 21 nM

AACAAGGCAGGAUAUACAUGAGGAUCACCCAUGUGAGAAUUAAGUGGCGUAACACAAAGUAGAAGGGCCAUGGA [Ruby 5]
apparent KD of MS2 coat protein (MS2 coat protein [1]): 49.9 nM | apparent KD of MS2 coat protein (MS2 coat protein [2]): 39.5 nM

AACAGUACAGGAUAUACAUGAGGAUCACCCAUGUGAGAAUUAAGUGGCGUACCACAAAGUAGAAGGGUACUGGA [Maslow Revisited]
apparent KD of MS2 coat protein (MS2 coat protein [1]): 173 nM | apparent KD of MS2 coat protein (MS2 coat protein [2]): 35 nM

AAUGUACGAGGAUAUACAUAGAUACAGAUACAUGUAGACGUACAUGAGGAUCACCCAUGUAGAAGGCGUAUAUA [Mat - Same state - Mayanna Mod - D113]
apparent KD of MS2 coat protein (MS2 coat protein [1]): 172 nM | apparent KD of MS2 coat protein (MS2 coat protein [2]): 82.8 nM

AAAAGUACAGGAUAUACAUGAGGAUCACCCAUGUAGAAAGGAAGUGUAAAAAAAAAGUGUAGAAGGGUGCAUGA [MS2 Riboswitches On Chip Exclusion 3 wbt1]
apparent KD of MS2 coat protein (MS2 coat protein [1]): 21.2 nM | apparent KD of MS2 coat protein (MS2 coat protein [2]): 22.5 nM

AAAAAUGGAGGAUAUACGUACAUGUCAAAAGACGUGAAGGGACAUGAGGAUCACCCAUGUAGAAGGCUAAAAAA [JL Stem Breaker 7]
apparent KD of MS2 coat protein (MS2 coat protein [1]): 29.5 nM | apparent KD of MS2 coat protein (MS2 coat protein [2]): 80.1 nM

AAAAAGUGAGGAUAUGCAGUGGCCUGUAGACGCGAGCACUUGUAGAAGGCACAUGAGGAUCACCCAUGUUUAAA [EX4 Malc#29]
apparent KD of MS2 coat protein (MS2 coat protein [1]): 20.5 nM | apparent KD of MS2 coat protein (MS2 coat protein [2]): 21.3 nM

GAGAAGUUAGGAUAUGCGGAGGGAAGGAAGGAAAGGGAAGGGCAGAAGGAACAUGAGGAUCACCCAUGUAAGAG [salish99-ex4-02]
apparent KD of MS2 coat protein (MS2 coat protein [1]): 25.3 nM | apparent KD of MS2 coat protein (MS2 coat protein [2]): 35.9 nM

AAAAAGUGAGGAUAUGGAAAAAAAAAAAAAAAAAAAAAAAACCAGAAGGCACAUGAGGAUCACCCAUGUAAAAA [exclusive 2]
apparent KD of MS2 coat protein (MS2 coat protein [1]): 30.9 nM | apparent KD of MS2 coat protein (MS2 coat protein [2]): 38.6 nM

AAAAAACAUGAGGAUCACCCAUGUAAGGAUAUGCUGAAAAAAACCUGGAAAACAGGCAGCAGAAGGUACAAAAA [66%, Wbt, 36]
apparent KD of MS2 coat protein (MS2 coat protein [1]): 35.6 nM | apparent KD of MS2 coat protein (MS2 coat protein [2]): 23.9 nM

AAAGGACGAGGAUAUACAUGAGGAUCACCCAUGUAAAAAGCAUAAUAAAAUAACUUAUGUAGAAGGCGUCCAAA [Mat - Exclusion 3 - Eli mod - D91]
apparent KD of MS2 coat protein (MS2 coat protein [1]): 102 nM | apparent KD of MS2 coat protein (MS2 coat protein [2]): 22 nM
